In one assay the target is T1, human serum albumin (human, UniProt P02768 25-609).
T1 construct: On the Biacore chip; also called human albumin

Another assay concerns the target T2, rhesus serum albumin (rhesus, UniProt Q28522 17-600).
T2 construct: On the Biacore chip; also called rhesus albumin

For a further assay, the target named is T3, mouse serum albumin (mouse, UniProt P07724 25-608).
T3 construct: On the Biacore chip; also called mouse albumin

The target of assay [1] is T4, human TNFα (human, UniProt P01375 77-233).
T4 construct: Biotinylated in the ELISAs, amine-coupled to CM5 in Biacore; also called human TNF-alpha; hTNF-alpha
T4 sequence (P01375 77-233 limits assumed): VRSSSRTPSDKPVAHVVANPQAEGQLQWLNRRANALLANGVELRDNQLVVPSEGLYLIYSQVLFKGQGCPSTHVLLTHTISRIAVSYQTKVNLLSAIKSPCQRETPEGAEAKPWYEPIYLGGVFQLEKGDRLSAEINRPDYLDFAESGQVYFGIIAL

The target of assay [2] is T4, human TNFα. This is another data set of the same source.
In assay [3] the target is T4, human TNFα. Nature of the assay: cell-based or functional assay.
The target of assay [4] is T4, human TNFα. The assay is described as follows: cell-based or functional assay. The source holds these as a separate data set.
Assay [5] has as its target T4, human TNFα. The source holds these as a separate data set.
In assay [6] the target is T4, human TNFα. The assay is described as follows: ELISA on biotinylated human TNFα captured on neutravidin (as Example 10); untreated reference and mildly treated samples.

Like-named read-outs stand apart in the source and are kept apart here.

T3 sequence (P07724 25-608 limits assumed): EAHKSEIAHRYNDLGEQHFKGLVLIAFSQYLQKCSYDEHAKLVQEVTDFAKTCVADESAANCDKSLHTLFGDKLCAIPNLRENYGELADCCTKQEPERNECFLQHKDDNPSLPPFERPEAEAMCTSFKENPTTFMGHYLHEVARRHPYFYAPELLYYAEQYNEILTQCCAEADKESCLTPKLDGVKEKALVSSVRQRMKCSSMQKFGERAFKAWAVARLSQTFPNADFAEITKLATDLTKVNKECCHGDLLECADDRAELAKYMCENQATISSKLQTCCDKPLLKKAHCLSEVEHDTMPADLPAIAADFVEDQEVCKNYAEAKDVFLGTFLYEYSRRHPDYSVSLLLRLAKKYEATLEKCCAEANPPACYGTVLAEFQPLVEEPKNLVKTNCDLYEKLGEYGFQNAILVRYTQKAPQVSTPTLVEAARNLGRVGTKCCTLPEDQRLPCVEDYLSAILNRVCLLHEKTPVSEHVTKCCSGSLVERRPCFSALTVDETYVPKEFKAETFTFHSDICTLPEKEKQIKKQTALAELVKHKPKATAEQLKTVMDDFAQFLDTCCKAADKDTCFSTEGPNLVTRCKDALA
T2 sequence (Q28522 17-600 limits assumed): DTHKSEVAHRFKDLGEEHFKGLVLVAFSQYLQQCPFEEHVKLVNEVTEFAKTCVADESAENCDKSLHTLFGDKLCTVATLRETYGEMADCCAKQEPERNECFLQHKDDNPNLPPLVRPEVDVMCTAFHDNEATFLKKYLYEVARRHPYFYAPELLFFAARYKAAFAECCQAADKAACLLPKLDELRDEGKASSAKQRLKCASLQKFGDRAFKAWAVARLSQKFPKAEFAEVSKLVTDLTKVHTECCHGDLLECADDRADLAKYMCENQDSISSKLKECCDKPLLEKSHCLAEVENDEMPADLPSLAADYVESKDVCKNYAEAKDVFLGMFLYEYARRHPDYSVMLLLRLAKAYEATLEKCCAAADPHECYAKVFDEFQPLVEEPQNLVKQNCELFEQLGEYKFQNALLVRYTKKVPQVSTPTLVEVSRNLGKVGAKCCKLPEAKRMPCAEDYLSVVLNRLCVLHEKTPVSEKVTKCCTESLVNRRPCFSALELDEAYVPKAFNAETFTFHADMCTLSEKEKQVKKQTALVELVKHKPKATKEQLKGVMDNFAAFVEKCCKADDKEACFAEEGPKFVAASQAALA

B1: PMP6B4 (VHH)
VHH: EVQLVESGGGLVQEGGSLRLACAASERIWDINLLGWYRQGPGNERELVATITVGDSTSYADSVKGRFTISRDYDKNTLYLQMNSLRPEDTGLYYCKIRRTWHSELWGQGTQVTVSS
notes: Class C serum albumin nanobody; tested as unpurified protein
As to B1, the binding result in the assay with human serum albumin, in the assay with rhesus serum albumin and in the assay with mouse serum albumin was “binds” throughout.

B2: PMP1H2 (VHH)
VHH: QVKLEESGGGLVQPGDSLRLSCAASGRTFSDYSGYTYTVGWFRQAPGKEREFVARIYWSSGNTYYADSVKGRFTISRDIAKNTVDLLMNNLEPEDTAVYYCAARDGIPTSRSVESYNYWGQGTQVTVSS
notes: Tested as unpurified protein
B2 yielded a koff with human TNFα [1] of 0.00365 s⁻¹.

B3: TNF18 (TNF2 HUM4) (VHH)
VHH: EVQLVESGGGLVQPGGSLRLSCAASGRTFSEPSGYTYTIGWFRQAPGKGREFVARIYWSSGLTYYADSVKGRFTISRDIAKNTVDLQMNSLRPEDTAVYYCAARDGIPTSRSVGSYNYWGQGTQVTVSS
notes: Humanised TNF2, first round
As for B3, the koff in the assay with human TNFα [2] came out at 0.0007 s⁻¹. For the same molecule, the “EC50 in nM (mean); L929s + Act D cytotoxicity assay, human TNFa @ 0.5 ng/ml” value (shortened to “EC50 in nM (mean)”) with human TNFα [3] was determined as 3.13 nM; with human TNFα [4], 1.51 nM.

B4: TNF31 (TNF2 HUM1) (VHH)
VHH: EVQLVESGGGLVQPGGSLRLSCAASGFTFSEPSGYTYTIGWFRQAPGKGREFVARIYWSSGLTYYADSVKGRFTISRDIAKNTVDLQMNSLRPEDTAVYYCAARDGIPTSRSVGSYNYWGQGTQVTVSS
notes: Humanised TNF2, second round; tags not restated
As for B4, the “EC50 in nM (mean)” value with human TNFα [3] was 2.19 nM. For the same molecule, in the assay with human TNFα [5], the off-rate (koff) is 0.00063 s⁻¹. Also, the half-maximal effective concentration (EC50 (read off the curve)) with human TNFα [6] was approximately 10 ng/mL.

B5: TNF19 (TNF2 HUM5) (VHH)
VHH: EVQLVESGGGLVQPGGSLRLSCAASGRTFSEPSGYTYTIGWFRQAPGKGREFVARIYWSSGLTYYADSVKGRFTISRDIAKNTVDLQMNSLKPEDTAVYYCAARDGIPTSRSVGSYNYWGQGTLVTVSS
notes: Humanised TNF2, first round
In the assay with human TNFα [2], B5 yielded a koff of 0.00079 s⁻¹. For the same molecule, the “EC50 in nM (mean)” value was 7.37 nM in the assay with human TNFα [3] and 2.19 nM in the assay with human TNFα [4].

B6: PMP3G2 (VHH)
VHH: AVQLVESGGGLVQPGDSLRLSCAASGRTFSDYSGYTYTVGWFRQAPGKEREFVARIYWSSGNTYYADSVKGRFTISRDIAKNTVDLLMNNLEPEDTAVYYCAARDGIPTSRSVESYNYWGQGTQVTVSS
notes: Tested as unpurified protein
Molecule B6 returned a koff with human TNFα [1] of 0.0109 s⁻¹.

B7: TNF15 (TNF2 HUM1) (VHH)
VHH: EVQLVESGGGLVQPGGSLRLSCAASGRTFSEPSGYTYTIGWFRQAPGKGREFVARIYWSSGLTYYADSVKGRFTISRDIAKNTVDLQMNSLKPEDTAVYYCAARDGIPTSRSVGSYNYWGQGTQVTVSS
notes: Humanised TNF2, first round
The molecule B7 yielded a koff with human TNFα [2] of 0.00054 s⁻¹. For the same molecule, the “EC50 in nM (mean)” value with human TNFα [3] amounted to 5.9 nM; with human TNFα [4], 1.67 nM.

B8: TNF32 (TNF2 HUM2) (VHH)
VHH: EVQLVESGGGLVQPGGSLRLSCAASGFTFSEPSGYTYTIGWFRQAPGKGREFVARIYWSSGLTYYADSVKGRFTISRDIAKNTVDLQMNSLRPEDTAVYYCAARDGIPTSRSVGSYNYWGQGTLVTVSS
notes: as for B4
On to B8, for which the “EC50 in nM (mean)” value with human TNFα [3] was determined as 2.51 nM. In the assay with human TNFα [5], this molecule registered an off-rate (koff) of 0.00084 s⁻¹. Further, the “EC50 (read off the curve)” value with human TNFα [6] was approximately 10 ng/mL.

B9: TNF17 (TNF2 HUM3) (VHH)
VHH: EVQLVESGGGLVQPGGSLRLSCAASGRTFSEPSGYTYTIGWFRQAPGKGREFVARIYWSSGLTYYADSVKGRFTISRDNAKNTVDLQMNSLKPEDTAVYYCAARDGIPTSRSVGSYNYWGQGTQVTVSS
notes: Humanised TNF2, first round
In the assay with human TNFα [2], B9 showed a koff of 0.0011 s⁻¹. In addition, the “EC50 in nM (mean)” value with human TNFα [3] came out at 7.55 nM; with human TNFα [4] it was 3.02 nM.

B10: TNF16 (TNF2 HUM2) (VHH)
VHH: EVQLVESGGGLVQPGGSLRLSCAASGFTFSEPSGYTYTIGWFRQAPGKGREFVARIYWSSGLTYYADSVKGRFTISRDIAKNTVDLQMNSLKPEDTAVYYCAARDGIPTSRSVGSYNYWGQGTQVTVSS
notes: Humanised TNF2, first round
For B10, the koff with human TNFα [2] came to 0.00066 s⁻¹. The “EC50 in nM (mean)” value with human TNFα [3] is 2.42 nM; with human TNFα [4], 1.9 nM.

B11: PMP6 G7 (VHH)
VHH: QVQLVESGGGLVQPGGSLRLSCAASGFTFSNYWMYWVRVAPGKGLERISRDISTGGGYSYYADSVKGRFTISRDNAKNTLYLQMNSLKPEDTALYYCAKDREAQVDTLDFDYRGQGTQVTVSS
notes: serum albumin nanobody, class D
With B11, the binding result with human serum albumin and with rhesus serum albumin was “binds” each time.

B12: TNF20 (TNF3 HUM1) (VHH)
VHH: EVQLVESGGGLVQPGGSLRLSCAASGRSLSNYYMGWFRQAPGKGRELLGNISWRGYNIYYKDSVKGRFTISRDDSKNTIYLQMNSLKPEDTAVYYCAASILPLSDDPGWNTYWGQGTQVTVSS
As for B12, the “EC50 in nM (mean)” value with human TNFα [3] and in the assay with human TNFα [4] was 0.38 nM in each case.

B13: TNF23 (TNF3 HUM4) (VHH)
VHH: EVQLVESGGGLVQPGGSLRLSCAASGRSLSNYYMGWFRQAPGKGRELLGNISWRGYNIYYKDSVKGRFTISRDDSKNTIYLQMNSLKPEDTAVYYCAASILPLSDDPGWNTYWGQGTLVTVSS
With B13, the “EC50 in nM (mean)” value with human TNFα [3] and in the assay with human TNFα [4] was 0.3 nM in each case.

B14: TNF22 (TNF3 HUM3) (VHH)
VHH: EVQLVESGGGLVQPGGSLRLSCAASGRSLSNYYMGWFRQAPGKGRELLGNISWRGYNIYYKDSVKGRFTISRDDSKNTIYLQMNSLKTEDTAVYYCAASILPLSDDPGWNTYWGQGTQVTVSS
As for B14, the “EC50 in nM (mean)” value with human TNFα [3] and in the assay with human TNFα [4] was 0.303 nM each time.

B15: TNF21 (TNF3 HUM2) (VHH)
VHH: EVQLVESGGGLVQPGGSLRLSCAASGFTFSNYYMGWFRQAPGKGRELLGNISWRGYNIYYKDSVKGRFTISRDDSKNTIYLQMNSLKPEDTAVYYCAASILPLSDDPGWNTYWGQGTQVTVSS
In the case of B15, the “EC50 in nM (mean)” value with human TNFα [3] and with human TNFα [4] was 0.889 nM in each case.

B16: TNF33 (TNF3 HUM1) (VHH)
VHH: EVQLVESGGGLVQPGGSLRLSCAASGRSLSNYYMGWFRQAPGKGRELLGNISWRGYNIYYKDSVKGRFTISRDDSKNTIYLQMNSLRPEDTAVYYCAASILPLSDDPGWNTYWGQGTLVTVSS
Consider B16, for which the “EC50 in nM (mean)” value in the assay with human TNFα [3] stood at 0.3 nM.

B17: PMP1G11 (VHH)
VHH: QVQLQESGGGMVQPGGSLRLSCAASGFDFGVSWMYWVRQAPGKGLEWVSEINTNGLITKYPDSVKGRFTISRDNAKTTLYLQMNSLKPEDTALYYCARSPSGSFRGQGTQVTVSS
notes: Tested as unpurified protein
Take B17: in the assay with human TNFα [1], the dissociation rate constant (koff) turned out to be 0.00115 s⁻¹.

B18: PMP1H6 (VHH)
VHH: EVQLVESGGGLVQPGGSLRLSCATSGFDFSVSWMYWVRQAPGKGLEWVSEINTNGLITKYVDSVKGRFTISRDNAKNTLYLQMDSLIPEDTALYYCARSPSGSFRGQGTQVTVSS
notes: Tested as unpurified protein
With B18, the off-rate (koff) with human TNFα [1] amounted to 0.00214 s⁻¹. Compared with the last molecule, the koff is about 1.9-fold higher.

B19: PMP6 G8 (VHH)
VHH: AVQLVESGGGLVQPGGSLRLTCTASGFTFRSFGMSWVRQAPGKDQEWVSAISADSSTKNYADSVKGRFTISRDNAKKMLYLEMNSLKPEDTAVYYCVIGRGSPSSPGTQVTVSS
notes: serum albumin nanobody, class A
Consider B19, for which the binding result with human serum albumin, with rhesus serum albumin and in the assay with mouse serum albumin was “binds” each time.

B20: PMP6 A5 (VHH)
VHH: QVQLAESGGGLVQPGGSLRLTCTASGFTFGSFGMSWVRQAPGEGLEWVSAISADSSDKRYADSVKGRFTISRDNAKKMLYLEMNSLKSEDTAVYYCVIGRGSPASQGTQVTVSS
notes: as for B19
As to B20, the binding result with human serum albumin, with rhesus serum albumin and with mouse serum albumin was “binds” throughout.

B21: PMP6C1 (VHH)
VHH: AVQLVDSGGGLVQPGGSLRLSCAASGFSFGSFGMSWVRQYPGKEPEWVSSINGRGDDTRYADSVKGRFSISRDNAKNTLYLQMNSLKPEDTAEYYCTIGRSVSRSRTQGTQVTVSS
notes: Class B serum albumin nanobody; tested as unpurified protein
As for B21, the binding result with human serum albumin, in the assay with rhesus serum albumin and with mouse serum albumin was “binds” in each case.

One may read the koff as a measure of how fast the partners let go of each other. A high value points to fast dissociation. As a reminder, the EC50 (read off the curve) is the midpoint of the concentration-response curve. Higher therefore signals a need for much substance.

The record behind these values is patent publication US20200079844A1 (Ablynx, published 2020).
